{"source": "paper PMC2671406", "about": "(PLoS ONE, 2009)", "conditions_in_all_cases": "both partners purified", "key": {"[1]": {"target": "T1, Human (vertebrate) calmodulin (human, UniProt P0DP23 1-149)", "T1 construct": "also called CaM", "assay": "ITC; CaM (0.1 mM) in the cell, CnA-CBD peptide (1 mM) in the syringe, 5 µl injections; +35°C; 10 mM HEPES pH 7.5, 100 mM NaCl, 10 mM CaCl2"}, "[2]": {"target": "T1, Human (vertebrate) calmodulin", "assay": "SEC; CaM (200 µl at 176 µM) on Superdex 75 HR 10/30 with and without excess (625 µM) CnA-CBD peptide; 50 mM HEPES pH 7.5, 150 mM NaCl, 4 mM CaCl2"}, "[3]": {"target": "T1, Human (vertebrate) calmodulin", "assay": "ITC; CaM (0.1 mM) in the cell, CnA-CBD peptide (1 mM) in the syringe, 5 µl injections; +30°C; 10 mM HEPES pH 7.5, 100 mM NaCl, 10 mM CaCl2"}}, "data": [{"binder": "VIRNKIRAIGKMARVFS (also called CnA-CBD; CnA-CBD peptide; source: bought: GL Biochem (Shanghai, China))", "note": "[Peptide corresponding to the CaM binding domain of calcineurin A (residues 395-411)]", "values": [{"measurement": "Ka", "setting": "[1]", "result": "1.4e+06", "unit": "M⁻¹"}, {"measurement": "Kd", "setting": "[1]", "result": 700, "unit": "nM"}, {"measurement": "dH", "setting": "[1]", "result": -5.7, "unit": "kcal/mol"}, {"measurement": "stoichiometry N", "setting": "[2]", "result": 1}, {"measurement": "Ka", "setting": "[3]", "result": "3.5e+06", "unit": "M⁻¹"}, {"measurement": "Kd", "setting": "[3]", "result": 300, "unit": "nM"}, {"measurement": "dH", "setting": "[3]", "result": -1.8, "unit": "kcal/mol"}]}]}
